Measured values: EP4786494A1 (Nanjing Leads Biolabs Co., Ltd., dated 2026)

T1: human FGFR2-his protein (huFGFR2-his) (human)
T1 construct: Extracellular region of human FGFR2 (NP_001138385.1) with a 6xHis tag; also called human FGFR2 extracellular protein
T1 chain: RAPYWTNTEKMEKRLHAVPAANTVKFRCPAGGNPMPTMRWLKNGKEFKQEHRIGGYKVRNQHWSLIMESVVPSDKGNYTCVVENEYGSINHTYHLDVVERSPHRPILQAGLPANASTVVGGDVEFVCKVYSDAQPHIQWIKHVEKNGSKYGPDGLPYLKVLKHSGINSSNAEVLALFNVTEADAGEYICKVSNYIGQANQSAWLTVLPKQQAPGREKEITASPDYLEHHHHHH

T2: human FGFR3 protein (Sino Biological, Cat. No. 16486-H08H) (human, UniProt P22607-2 23-377)
T2 construct: Bought recombinant protein; construct not described
T2 sequence (looked up): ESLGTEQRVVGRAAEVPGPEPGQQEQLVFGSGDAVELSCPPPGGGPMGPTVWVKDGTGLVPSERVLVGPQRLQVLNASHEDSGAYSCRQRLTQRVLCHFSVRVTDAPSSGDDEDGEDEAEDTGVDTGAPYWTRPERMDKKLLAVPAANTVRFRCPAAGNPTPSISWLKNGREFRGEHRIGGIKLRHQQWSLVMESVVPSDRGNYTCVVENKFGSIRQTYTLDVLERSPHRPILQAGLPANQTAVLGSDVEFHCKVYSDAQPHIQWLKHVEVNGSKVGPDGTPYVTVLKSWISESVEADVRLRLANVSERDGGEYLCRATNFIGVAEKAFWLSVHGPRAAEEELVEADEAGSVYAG

T3: human FGFR1 protein (ACRO Biosystems, Cat. No. FG1-H5223) (human, UniProt P11362-14 22-285)
T3 construct: Bought recombinant protein; construct not described
T3 sequence (looked up): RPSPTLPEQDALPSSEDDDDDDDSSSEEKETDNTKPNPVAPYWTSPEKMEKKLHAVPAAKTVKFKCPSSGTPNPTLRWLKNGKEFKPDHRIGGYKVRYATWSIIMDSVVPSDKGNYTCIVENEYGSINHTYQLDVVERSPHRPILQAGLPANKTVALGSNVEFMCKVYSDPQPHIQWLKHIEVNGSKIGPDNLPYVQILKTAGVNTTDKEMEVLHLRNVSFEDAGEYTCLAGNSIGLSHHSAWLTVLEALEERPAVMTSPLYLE


Columns and labels:
[1] = target: T1, human FGFR2-his protein (huFGFR2-his); assay: ELISA screen of hybridoma subclones on human FGFR2-his
[2] = target: T2, human FGFR3 protein (Sino Biological, …); assay: ELISA, FGFR3 coated
[3] = target: T4, human FGFR4 protein (Sino Biological, Cat. No. 10538-H08H) (human, UniProt P22455 22-369); assay: ELISA, FGFR4 coated
T4 construct: Bought recombinant protein; construct not described

[4] = target: T3, human FGFR1 protein (ACRO Biosystems, …); assay: ELISA, FGFR1 coated

| Binder | binding result [1] | binding result [2] | binding result [3] | binding result [4] |
| --- | --- | --- | --- | --- |
| mouse antibody F6B6 (antibody, V domains shown, Antibody as produced by the hybridoma) VH: QVQLKQSGPGLVQPSQSLSITCTVSGFSLTNYGVHWVRQSPGKGLEWLGVIWSDGSTDYDAAFISRLSISTDNSKSQVFFKMNSLQAADTAIYYCARKGDYDYDNYAMDYWGQGTSVTVSS VL: DVVITQSPATLSVTPGDSVSLSCRASQSISNNLHWYQQKSHESPRLLIKYASQSISGIPSRFSGSGSGTDFTLSINSVETEDFGMYFCQQSNSWPLTFGAGTKLELK | binds |  |  |  |
| antibody F6B6 (murine chimeric anti-FGFR2 antibody) (antibody, human IgG1, kappa, V domains shown) VH: QVQLKQSGPGLVQPSQSLSITCTVSGFSLTNYGVHWVRQSPGKGLEWLGVIWSDGSTDYDAAFISRLSISTDNSKSQVFFKMNSLQAADTAIYYCARKGDYDYDNYAMDYWGQGTSVTVSS VL: DVVITQSPATLSVTPGDSVSLSCRASQSISNNLHWYQQKSHESPRLLIKYASQSISGIPSRFSGSGSGTDFTLSINSVETEDFGMYFCQQSNSWPLTFGAGTKLELKR |  | no binding | no binding | no binding |
| antibody D12D8 (murine chimeric anti-FGFR2 antibody) (antibody, human IgG1, kappa, V domains shown) VH: QVQLQQSGAELARPGASVKLSCKASGYTFTNYGISWVKQRTGQGLEWIGEIYPRSGNTYYNEKFKGKATLTADKSSSTAYMELRSLTSEDSAVYFCARGDYSNSDYWGQGTTLTVSS VL: DIQMTQTTSSLSASLGDRVTISCRASQDITDHLNWYQQKPDGTVKLLIYYTSRLHSGVPSRFSGSGSGTDYSLTISNLEQEDIATYFCQQGNTLPRTFGGGTKLEIKR |  | no binding | no binding | no binding |
| bemarituzumab (antibody, human IgG1, kappa, V domains shown) VH: QVQLVQSGAEVKKPGSSVKVSCKASGYIFTTYNVHWVRQAPGQGLEWIGSIYPDNGDTSYNQNFKGRATITADKSTSTAYMELSSLRSEDTAVYYCARGDFAYWGQGTLVTVSS VL: DIQMTQSPSSLSASVGDRVTITCKASQGVSNDVAWYQQKPGKAPKLLIYSASYRYTGVPSRFSGSGSGTDFTFTISSLQPEDIATYYCQQHSTTPYTFGQGTKLEIKR |  | no binding | no binding | no binding |
| mouse antibody F3F8 (antibody, V domains shown, Antibody as produced by the hybridoma) VH: QVTLKESGPGILQSSQTLSLTCSFSGFSLSTSGMGVSWIRQPSGKGLEWLAHIYWDNDKRYNPSLKSRLTISKDTSRNQVFLKITSVDTADTATYYCTRSDSSGSFDYWGQGTTLTVSS VL: DIQMTQTTSSLSASLGDRVTISCRASQDISNYLNWYQQKPDGTVKFLIYYTSTLHSGVPSRFSGSGSGTDYSLTISNLEQEDIATYFCQQGNTLPWTFGGGTKLEIK | binds |  |  |  |
| antibody F3F8 (murine chimeric anti-FGFR2 antibody) (antibody, human IgG1, kappa, V domains shown) VH: QVTLKESGPGILQSSQTLSLTCSFSGFSLSTSGMGVSWIRQPSGKGLEWLAHIYWDNDKRYNPSLKSRLTISKDTSRNQVFLKITSVDTADTATYYCTRSDSSGSFDYWGQGTTLTVSS VL: DIQMTQTTSSLSASLGDRVTISCRASQDISNYLNWYQQKPDGTVKFLIYYTSTLHSGVPSRFSGSGSGTDYSLTISNLEQEDIATYFCQQGNTLPWTFGGGTKLEIKR |  | no binding | no binding | no binding |
| antibody E3A1 (murine chimeric anti-FGFR2 antibody) (antibody, human IgG1, kappa, V domains shown) VH: QVTLKESGPGILQSSQTLSLTCSFSGFSLTTSGMGVSWIRQPSGKGLEWLAHIYWDDDKRYNPSLKSRLTISKDTSRNQVFLKITSVDTADTATYYCAGCDSSGSFDYWGQGTTLTVSS VL: DIQMTQTTSSLSASLGDRVTITCRASQDISNYLNWYQQKPDGTVKLLIYYRSRLHSGVPSRFSGSGSGPEYSLTISNLEQEDIATYFCQQGNTLPWTFGGGTKLEIKR |  |  | no binding | no binding |
| mouse antibody E3A1 (antibody, V domains shown, Antibody as produced by the hybridoma) VH: QVTLKESGPGILQSSQTLSLTCSFSGFSLTTSGMGVSWIRQPSGKGLEWLAHIYWDDDKRYNPSLKSRLTISKDTSRNQVFLKITSVDTADTATYYCAGCDSSGSFDYWGQGTTLTVSS VL: DIQMTQTTSSLSASLGDRVTITCRASQDISNYLNWYQQKPDGTVKLLIYYRSRLHSGVPSRFSGSGSGPEYSLTISNLEQEDIATYFCQQGNTLPWTFGGGTKLEIK | binds |  |  |  |
| mouse antibody G11B8 (antibody, V domains shown, Antibody as produced by the hybridoma) VH: EVQLQQSGPELVKPGASVKIPCKASGYTFTDYNMDWVKQSHGKSLEWIGDINPKNGETFYNQKFKGKATLTVDRSSNTAYMELRSLTSEDTAVYFCAKRDLNWYFDYWGQGTTLTVSS VL: DIQMTQSSSYLSVSLGGRVTITCKASDHINNWLAWYQQKPGNAPRLLISGATSLETGVPSRFSGSGSGKDYTLSITSLQTEDVATYYCQQYWSTPWTFGGGTKLEIK | binds |  |  |  |
| antibody G11B8 (murine chimeric anti-FGFR2 antibody) (antibody, human IgG1, kappa, V domains shown) VH: EVQLQQSGPELVKPGASVKIPCKASGYTFTDYNMDWVKQSHGKSLEWIGDINPKNGETFYNQKFKGKATLTVDRSSNTAYMELRSLTSEDTAVYFCAKRDLNWYFDYWGQGTTLTVSS VL: DIQMTQSSSYLSVSLGGRVTITCKASDHINNWLAWYQQKPGNAPRLLISGATSLETGVPSRFSGSGSGKDYTLSITSLQTEDVATYYCQQYWSTPWTFGGGTKLEIKR |  | no binding | no binding | no binding |
| antibody H3F7-a (murine chimeric anti-FGFR2 antibody) (antibody, human IgG1, kappa, V domains shown) VH: EVQLQQSGPELVKPGASVKIPCKASGYTFTDYNMDWVKQSHGKSLEWIGDINPKNGETFYNQKFKGKATLTVDRSSSTAYMELRSLTSEDTAVYFCAKRDLNWYFDYWGQGTTLTVSS VL: DIQMTQSSSYLSVSLGGRVTITCKASDHINNWLAWYQQKPGNAPRLLISGATSLETGVPSRFSGSGSGKDYTLSITSLQTEDVATYYCQQYWSTPWTFGGGTKLEIKR |  | no binding | no binding | no binding |
| mouse antibody H3F7-a (antibody, V domains shown, Antibody as produced by the hybridoma) VH: EVQLQQSGPELVKPGASVKIPCKASGYTFTDYNMDWVKQSHGKSLEWIGDINPKNGETFYNQKFKGKATLTVDRSSSTAYMELRSLTSEDTAVYFCAKRDLNWYFDYWGQGTTLTVSS VL: DIQMTQSSSYLSVSLGGRVTITCKASDHINNWLAWYQQKPGNAPRLLISGATSLETGVPSRFSGSGSGKDYTLSITSLQTEDVATYYCQQYWSTPWTFGGGTKLEIK | binds |  |  |  |

Continued, values first:

| binding result [1] | binding result [2] | binding result [3] | binding result [4] | Binder |
| --- | --- | --- | --- | --- |
|  |  | no binding | no binding | antibody A5H12 (murine chimeric anti-FGFR2 antibody) (antibody, human IgG1, kappa, V domains shown) VH: not shown VL: DIVLTQSPASLAVSLGQRATISCRASESIDDFGISFMHWYQQKPGQPPKLLIYRASNLESGIPARFSGSGSRADFTLTINPVETDDVATYYCQQSNKDPPTFGAGTNLELKR |
| binds |  |  |  | mouse antibody A1B2 (antibody, V domains shown, Antibody as produced by the hybridoma) VH: EVQLQQSGAELVRPGASVKLSCTASGFNIKDYYMHWVKQRPEQGLEWIGRIDPEDGDTEYAPKFQGKATMTADTSSNTAYLQLSSLTSEDTAVYYCTTYYYVSTYEDYWGQGTTLTVSS VL: QIVLTQSPAIMSASLGEEITLTCSASSSVSHMHWYQQKSGTSPKLLIYSTSNLASGVPSRFSGSGSGTFYSLTISSVEAEDAADYYCHHWSSWTFGGGTKLEIK |
|  | no binding | no binding | no binding | antibody A1B2 (murine chimeric anti-FGFR2 antibody) (antibody, human IgG1, kappa, V domains shown) VH: EVQLQQSGAELVRPGASVKLSCTASGFNIKDYYMHWVKQRPEQGLEWIGRIDPEDGDTEYAPKFQGKATMTADTSSNTAYLQLSSLTSEDTAVYYCTTYYYVSTYEDYWGQGTTLTVSS VL: QIVLTQSPAIMSASLGEEITLTCSASSSVSHMHWYQQKSGTSPKLLIYSTSNLASGVPSRFSGSGSGTFYSLTISSVEAEDAADYYCHHWSSWTFGGGTKLEIKR |
| binds |  |  |  | mouse antibody D12D8 (antibody, V domains shown, Antibody as produced by the hybridoma) VH: QVQLQQSGAELARPGASVKLSCKASGYTFTNYGISWVKQRTGQGLEWIGEIYPRSGNTYYNEKFKGKATLTADKSSSTAYMELRSLTSEDSAVYFCARGDYSNSDYWGQGTTLTVSS VL: DIQMTQTTSSLSASLGDRVTISCRASQDITDHLNWYQQKPDGTVKLLIYYTSRLHSGVPSRFSGSGSGTDYSLTISNLEQEDIATYFCQQGNTLPRTFGGGTKLEIK |
| binds |  |  |  | mouse antibody A5H12 (antibody, V domains shown, Antibody as produced by the hybridoma) VH: not shown VL: DIVLTQSPASLAVSLGQRATISCRASESIDDFGISFMHWYQQKPGQPPKLLIYRASNLESGIPARFSGSGSRADFTLTINPVETDDVATYYCQQSNKDPPTFGAGTNLELK |
